From PMC5957452, “Structural basis for overhang excision and terminal unwinding of DNA duplexes by TREX1” (PLoS Biology, 2018)

Target: the molecule itself
Assay: crystal structure; TREX1 (15-25 mg/mL) in 300 mM NaCl, 50 mM Tris-HCl pH 7.0 mixed with DNA substrates at molar ratio 1:1.5; four TREX1-DNA complex crystals, TREX1 dimer in the asymmetric unit

B1: Three prime repair exonuclease 1 (TREX1), mouse, residues 1-242 (C-terminal transmembrane domain truncated) (enzyme, Mus musculus, UniProt Q91XB0 1-242, looked up)
chain: MGSQTLPHGHMQTLIFLDLEATGLPSSRPEVTELCLLAVHRRALENTSISQGHPPPVPRPPRVVDKLSLCIAPGKACSPGASEITGLSKAELEVQGRQRFDDNLAILLRAFLQRQPQPCCLVAHNGDRYDFPLLQTELARLSTPSPLDGTFCVDSIAALKALEQASSPSGNGSRKSYSLGSIYTRLYWQAPTDSHTAEGDVLTLLSICQWKPQALLQWVDEHARPFSTVKPMYGTPATTGTT
notes: TREX1, Mus musculus, residues 1-242, subcloned into the BamHI/XhoI site of pET28a; C-terminal transmembrane domain truncated; His-tagged or non-His-tagged (thrombin-treated) TREX1 was used for crystallization; Crystals also hold DNA substrates and Mg2+; also called mTREX1; wild-type TREX1; source: E. coli BL21-CodonPlus(DE3)-RIPL or Rosetta2(DE3)pLysS, purified (Ni-NTA, HiTrap Heparin, Superdex …)
B1: binds.
